Results as given in publication PMC10790780.

Columns and labels:
[1] = test system: Rho-His6 (transcription termination factor Rho) (Acinetobacter baumannii AB5075); assay: EMSA; details: LightShift chemiluminescent RNA EMSA kit components, 20 uL, 1 h at room temperature; 5% acrylamide TBE gel, 0.5x TBE, 100 V 120 min at 4 C; salt and pH not …
[2] = biological target: T1, Rho-His6 (transcription termination factor Rho) (Acinetobacter baumannii AB5075) (UniProt A0ABX6CC36); assay: competition
[3] = biological target: T1, Rho-His6 (transcription termination factor Rho) (Acinetobacter baumannii AB5075); assay: EMSA

Substance | Kd [1] [µM] | other results
ABUW_1959 mRNA leader | 0.029 | 
GGGCUUUGCCUGCUAGCCACAUUGCUAGCGGGUUUUAGCAGACCCUAUUUAAACAAAGACGAUAGACAGAACCUAGUUUUGUGUGUCGUGAACUCGUUCGCCCCCUUUUUCUCUAUGGUAGGGCGGAAGGGGGACACCUUCGGGUGUGCUGGUUUCUUUGUUUUCCAGUCUGCUAACCCUCUUUCGUCCUGCCAGUACUGAUC [ABUW_1645 mRNA leader, unlabeled competitor] |  | binding [2]: binds
GGGCUUUGCCUGCUAGCCACAUUGCUAGCGGGUUUUAGCAGACCCUAUUUAAACAAAGACGAUAGACAGAACCUAGUUUUGUGUGUCGUGAACUCGUUCGCCCCCUUUUUCUCUAUGGUAGGGCGGAAGGGGGACACCUUCGGGUGUGCUGGUUUCUUUGUUUUCCAGUCUGCUAACCCUCUUUCGUCCUGCCAGUACUGAUC [ABUW_1645 mRNA leader] |  | Kd [3]: 0.02 µM
ABUW_1645 mRNA leader | 0.02 | 
